Laboratory results taken from article PMC10925418, “Survivin Mediates Mitotic Onset in HeLa Cells Through Activation of the Cdk1-Cdc25B Axis” (Research Square, 2024).
Where no end group is shown, it is not given here.

B2: His-Cdk1 1–85 (domain or fragment)
chain: not shown
notes: Cdk1, human, residues 1-85, deletion mutant made by PCR; source: E. coli BL21, purified (Ni2+-charged agarose); not shown: His-tag, N-terminal, kept
B3: SUR A55-D70 peptide (peptide)
peptide: AQCFFCFKELEGWEPD
modifications: not fully specified (N-terminus); cysteine pairing not given here
notes: Survivin residues Ala55 through Asp70; the methods describe only one form of the peptide (biotin and tat at the N-terminus); also called Survivin peptide; Survivin A55-D70; source: synthetic peptide (f-BOC chemistry, HPLC purified; Peptron or W. M. Keck Biotechnology Research Center, Yale)

Assays:
Settings in all cases: both partners purified
SUR A55-D70 peptide = biological target: B3; experiment: pull-down; streptavidin-binding assay: 50 ug biotinylated peptide bound to streptavidin agarose, mixed with recombinant His-Cdk1 fragments; Western blotting
GST-Survivin = biological target: T1, GST-Survivin (UniProt O15392 1-142); experiment: pull-down; GST pull-down: His-tagged recombinant proteins mixed with GST, GST-Survivin or GST-Survivin mutants; Western blotting
T1 construct: Survivin; the printed peptide 55-70 fits human Survivin; also called recombinant Survivin; pGST-Survivin product; source: E. coli BL21, purified (glutathione agarose); not shown: GST, N-terminal, kept

His-Cdk1 1–183 = biological target: T2, His-Cdk1 1–183 (human, UniProt P06493 1-183); experiment: pull-down; streptavidin-binding assay: 50 ug biotinylated peptide bound to streptavidin agarose, mixed with recombinant His-Cdk1 fragments; Western blotting
T2 construct: source: E. coli BL21, purified (Ni2+-charged agarose); not shown: His-tag, N-terminal, kept

His-Cdk1 9–85 = biological target: T3, His-Cdk1 9–85 (human, UniProt P06493 9-85); experiment: as above
T3 construct: Cdk1, human, residues 9-85, deletion mutant made by PCR; source: E. coli BL21, purified (Ni2+-charged agarose); not shown: His-tag, N-terminal, kept

His-Cdk1 1–85 = biological target: B2; experiment: as above
His-Cdk1 = biological target: T4, His-Cdk1 (human, UniProt P06493 1-297); experiment: pull-down; GST pull-down: His-tagged recombinant proteins mixed with GST, GST-Survivin or GST-Survivin mutants; Western blotting
T4 construct: Cdk1, human, full-length cDNA BC014563 subcloned into pRSETa; also called recombinant His-Cdk1; Cdk1 protein kinase; source: E. coli BL21, purified (Ni2+-charged agarose); not shown: His-tag, N-terminal, kept
T4 sequence (P06493 whole entry): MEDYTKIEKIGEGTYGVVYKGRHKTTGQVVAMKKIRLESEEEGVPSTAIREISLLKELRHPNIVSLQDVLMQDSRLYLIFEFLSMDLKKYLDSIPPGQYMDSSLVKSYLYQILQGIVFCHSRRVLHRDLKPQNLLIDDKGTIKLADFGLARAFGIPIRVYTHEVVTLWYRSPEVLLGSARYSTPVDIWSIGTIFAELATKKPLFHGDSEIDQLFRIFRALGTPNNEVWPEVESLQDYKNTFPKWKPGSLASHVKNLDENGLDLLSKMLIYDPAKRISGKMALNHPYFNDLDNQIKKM

T3 sequence (P06493 9-85): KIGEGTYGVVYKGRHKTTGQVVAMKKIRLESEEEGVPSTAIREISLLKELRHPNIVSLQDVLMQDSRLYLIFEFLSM
T2 sequence (P06493 1-183): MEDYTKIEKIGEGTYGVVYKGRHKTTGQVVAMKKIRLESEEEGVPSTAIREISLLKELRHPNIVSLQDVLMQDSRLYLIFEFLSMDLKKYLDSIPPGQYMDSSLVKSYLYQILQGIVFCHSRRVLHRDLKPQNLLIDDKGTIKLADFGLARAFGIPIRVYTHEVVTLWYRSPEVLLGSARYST
His-Cdk1 1–85, sequence (P06493 1-85): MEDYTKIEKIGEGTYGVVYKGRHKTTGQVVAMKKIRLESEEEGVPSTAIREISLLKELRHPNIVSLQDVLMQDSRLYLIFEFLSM

B1: His-Cdk1 36–85 (domain or fragment)
chain: not shown
notes: Cdk1, human, residues 36-85, deletion mutant made by PCR; source: E. coli BL21, purified (Ni2+-charged agarose); not shown: His-tag, N-terminal, kept
SUR A55-D70 peptide
  binding result: binds

## B2
GST-Survivin
  binding result: binds

## B3
His-Cdk1 1–183
  binding result: binds
His-Cdk1 9–85
  binding result: binds
His-Cdk1 1–85
  binding result: binds

B4: GST-Survivin 1-70 (domain or fragment, UniProt O15392 1-70, looked up)
chain: MGAPTLPPAWQPFLKDHRISTFKNWPFLEGCACTPERMAEAGFIHCPTENEPDLAQCFFCFKELEGWEPD
notes: Survivin residues 1-70, deletion mutant made by PCR; also called Survivin N-terminus (first 70 amino acids); source: E. coli BL21, purified (glutathione agarose); not shown: GST, N-terminal, kept
His-Cdk1
  binding result: binds
